Positions count from the first letter of the chain named.
T1: human Trop-1 (EpCAM) (human, UniProt P16422 24-265, limits assumed)
T1 sequence (looked up): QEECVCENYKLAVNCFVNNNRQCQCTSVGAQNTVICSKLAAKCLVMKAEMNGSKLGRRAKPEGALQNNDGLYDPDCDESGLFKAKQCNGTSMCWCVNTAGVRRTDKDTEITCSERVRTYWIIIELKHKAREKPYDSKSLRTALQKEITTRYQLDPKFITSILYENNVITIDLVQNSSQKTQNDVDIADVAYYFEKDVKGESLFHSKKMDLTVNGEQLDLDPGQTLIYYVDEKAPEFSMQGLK

T2: rat Trop-2 (rat, UniProt Q6P9Z6 25-270, limits assumed)
T2 sequence (looked up): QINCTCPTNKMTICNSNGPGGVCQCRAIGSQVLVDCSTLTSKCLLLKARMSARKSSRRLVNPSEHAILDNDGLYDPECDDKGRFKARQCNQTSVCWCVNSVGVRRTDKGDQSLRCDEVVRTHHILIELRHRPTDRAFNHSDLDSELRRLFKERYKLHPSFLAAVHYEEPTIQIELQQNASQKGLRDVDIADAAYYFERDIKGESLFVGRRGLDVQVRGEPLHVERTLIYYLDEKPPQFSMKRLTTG

T3: mouse Trop-2 (mouse, UniProt Q8BGV3 25-270, limits assumed)
T3 construct: also called Kactus Cat #TRP-MM121
T3 sequence (looked up): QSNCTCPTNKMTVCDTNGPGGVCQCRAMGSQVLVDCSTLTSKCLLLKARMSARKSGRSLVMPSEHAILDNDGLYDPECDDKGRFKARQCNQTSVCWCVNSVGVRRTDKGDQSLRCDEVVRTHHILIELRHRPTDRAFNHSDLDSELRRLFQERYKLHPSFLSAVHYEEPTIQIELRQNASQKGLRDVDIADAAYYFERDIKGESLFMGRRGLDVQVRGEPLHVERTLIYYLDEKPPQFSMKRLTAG

T4: cynomolgus Trop-2-His protein (cynomolgus, UniProt P09758 27-274 (human entry))
T4 construct: also called cynmolgus Trop-His; Kactus Cat #TRP-CM121; not shown: His tag
T4 chain: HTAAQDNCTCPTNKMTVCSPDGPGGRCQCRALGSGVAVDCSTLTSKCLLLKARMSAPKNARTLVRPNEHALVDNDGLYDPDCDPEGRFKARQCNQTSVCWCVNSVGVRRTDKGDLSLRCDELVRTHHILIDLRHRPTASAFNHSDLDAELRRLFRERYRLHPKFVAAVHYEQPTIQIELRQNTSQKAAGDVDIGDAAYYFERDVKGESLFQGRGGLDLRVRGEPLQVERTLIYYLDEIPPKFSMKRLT

T5: human Trop-2-His protein (human, UniProt P09758 27-274)
T5 construct: extracellular domain; Assay paragraphs say only 'Trop-2-His'; also called hTrop-2; Kactus Cat #TRP-HM121; not shown: His tag
T5 sequence (looked up): T4 chain with V36M, N67S, S139G, V204I

B1: 5D4-1 (antibody, V domains shown)
VH: QQLEESGGGLVKPEGSLTLTCKGSGFDFSGTYWMWWVRQAPGKGLEWIAPIYVGSGSSTYYASWAKGRFTISSTSSTAVTLQATSLTAADTATYFCARGATNNVFMNYFNLWGPGTLVTVSS
VL: FEMTQTPSSVSEPVGGTVTIKCQASEDISSNLGWYQQKPGQPPKLLIYGASTLASGVPSRFKGSGSGTEFTLTISDLEPADAATYYCQTSYYIDDGVNGFGGGTEVVVK
B2: 5D4-2 (antibody, V domains shown)
VH: B1 VH with P50S
VL: B1 VL with P79A
B3: 1D10 (antibody, V domains shown)
VH: QEQLKESGGGLVQPGGSLTLSCKASGFDFNYYGVSWVRQAPGKGLEWIGYIYPAYHNTYYATWVNGRFTISSHNAQNTLYLQLNTLTAADTATYFCARDAGSTDYNLNLWGPGTLVTVSS
VL: DVVMTQTPASVEVAVGGTVTIKCQASEDIESYLAWYQQKPGQPPRLLIYEASKLASGVSSRFSGGGYGTDFTLTISGVECADAATYYCHQALTIGNVDNPFGGGGEVVVK
notes: Rabbit-derived clone; LEM construct: VH + rabbit IgG CH1 + human IgG1 CH2-CH3
B4: 72F12 (antibody, V domains shown)
VH: B3 VH with T19K, Y31N, G49A, Y55F, T85S, T103V, L107F
VL: DVVMTQTPASVEVAVGGTVTIKCQASKNIDSNLAWYQQKPGQPPKQLIYAASTLASGVSSRFSGSGYGAEFTLTISGVECADAATYYCQQALTIGNVDNPFGGGSEVVVK
notes: as for B3
B5: 74F11/15F5 (antibody, human IgG1, V domains shown)
VH: QEQLKESGGGLVQPGGSLKLSCKASGFDFNNYGMSWVRQAPGKGLEWIAYIYPAFHNTYYANWVNGRFTISSDNAQNTVDLQLNSLTAADTATYFCARDAGSTDYNFNLWGPGTLVTVSS
VL: B3 VL with V13A, S31R, R45K, A55P, G65S, D70E, H89Q, N96Y, G105S
notes: LEM construct: VH + rabbit IgG CH1 + human IgG1 CH2-CH3
B6: 9F7 (antibody, V domains shown)
VH: B3 VH with Y31N, A100T, L107F
VL: B3 VL with R45K, D70E, H89Q, I94V, G105S
notes: as for B3
B7: 62E3 (antibody, V domains shown)
VH: B3 VH with T19K, Y31E, G49A, Y55F, S102T, L107F
VL: B3 VL with P8A, A9S, S10P, E12S, V13A, R45K, G65S, D70E, H89Q, G105S
notes: as for B3
B8: 9D7 (antibody, V domains shown)
VH: QSLEESGGDLVQPGASLTLTCKASGFDLNNYSILWVRQAPGKGLEWIGCIYISGGSTYYANWAKGRFAISKTSSTTVTLQMTSLTAADTATYFCARDDGTASYYLNLWGPGTLVTVSS
VL: YDMTQTPASVSEPVGGTVTIKCQASEDIYKLLAWYQQKPGQPPKLLIYAASDLESGVPSRFKGRGSGTDYTLTISDLECADAATYYCQQAYTIGNIDNSFGGGTEVVVK
notes: as for B3
B9: 9D7-2 (antibody, V domains shown)
VH: B8 VH with C49S
VL: B8 VL with C79A
B10: 10A9-2 (antibody, V domains shown)
VH: B8 VH with S32A, I33M, C49S, S56T, Y59F, N61S, K64T, A101T
VL: B8 VL with E12A, P13A, K30S, A49G, D52N, R64S, D69E, C79A, A80D, S99A
B11: 10A9 (antibody, V domains shown)
VH: B8 VH with S32A, I33M, S56T, Y59F, N61S, K64T, A101T
VL: B8 VL with E12A, P13A, K30S, A49G, D52N, R64S, D69E, A80D, S99A
notes: as for B3

Biological target: T1, human Trop-1 (EpCAM)
Assay: ELISA, similar to Table 24
Protocol: (§1) Purified antibodies were tested by ELISA to confirm their binding and affinity against human and cynomolgus Trop-2-His protein. Briefly, 96-well Maxisorp plates (Nunc) were coated with 100 μl/well of 0.5 μg/ml human (Kactus Cat #TRP-HM121, or Sino Biological, Cat #10428-HO8H) or cynomolgus Trop-2 protein (Kactus Cat #TRP-CM121, or Sino Biological, Cat #90893-CO8H) diluted in 1×PBS (GIBCO) overnight at 4° C. Plates were washed four times with 300 μl/well washing buffer (1×PBST, diluted from 20×PBST (Thermo Scientific) with distilled water)) and then blocked with 300 μl/well of blocking buffer (1×PBST/3% BSA (BSA, Sigma)) for 2 hours at RT on plate shaker at 100 rpm. Plates were washed and added with 100 μl/well of testing antibodies, which were serial diluted with assay buffer (PBST/1% BSA). The antibodies were incubated at room temperature for 2 hours on plate shaker at 100 rpm. Plates were washed. One hundred microliters (100 μl) of 1:10,000 diluted horseradish peroxidase (HRP) conjugated anti-hIgG antibody (Jackson Immuno Research) was added into each well and incubated at room temperature for 1 hour on plate shaker at 100 rpm. Plates were washed and added with 100 μl/well TMB substrate for color development in dark at room temperature for up to 10 minutes. After addition of 50 μl/well of stop solution (1N H₂SO₄), plates were read at 450 nm on a plate reader (SpectraMax M5). EC₅₀ values were calculated using Graphpad Prism. Sacituzumab govitecan, was used as positive control. Anti-HEL.hIgG1 was used as isotype control.
(§2) Similar assays were performed to test whether the exemplary antibodies of the present disclosure bind to human Trop-1 (EpCAM) or mouse Trop-2 (Kactus, Cat #TRP-MM121) or rat Trop-2 (kactus, Cat #TRP_RM121). No binding of the exemplary antibodies of the present disclosure to human Trop-1 (EpCAM) or mouse or rat Trop-2 has been detected.

Row | binding result | Binder
1 | no binding | B1
2 | no binding | B2
3 | no binding | B3
4 | no binding | B4
5 | no binding | B5
6 | no binding | B6
7 | no binding | B7
8 | no binding | B8
9 | no binding | B9
10 | no binding | B10
11 | no binding | B11

Biological target: T2, rat Trop-2
Assay: ELISA, similar to Table 24
Protocol: as §1, §2

Row | binding result | Binder
12 | no binding | B1
13 | no binding | B2
14 | no binding | B3
15 | no binding | B4
16 | no binding | B5
17 | no binding | B6
18 | no binding | B7
19 | no binding | B8
20 | no binding | B9
21 | no binding | B10
22 | no binding | B11

Biological target: T3, mouse Trop-2
Assay: ELISA, similar to Table 24
Protocol: as §1, §2

Row | binding result | Binder
23 | no binding | B1
24 | no binding | B2
25 | no binding | B3
26 | no binding | B4
27 | no binding | B5
28 | no binding | B6
29 | no binding | B7
30 | no binding | B8
31 | no binding | B9
32 | no binding | B10
33 | no binding | B11

Biological target: T4, cynomolgus Trop-2-His protein
Assay: BLI (Gator Prime), LEM supernatant Ab on HFC probe
Protocol: (§3) After three times of regeneration and neutralization of HFC probe (Gator, Cat #160003), LEM transfection supernatant samples to be tested in K buffer was diluted 1:1 in K buffer and immobilized onto HFC probe. […] The association and dissociation of human or cynomolgus Trop-2-His antigen from antibody was measured on BLI machine Gator Prime. Affinity was calculated using Gator Bio analysis software. Blank control was used for reference subtraction. 1 μg/ml of Sacituzumab govitecan was used as positive control.
(§4) Table 23 below summarizes the binding affinity of exemplary anti-Trop-2 antibodies in LEM transfection supernatant samples to human and cynomolgus Trop-2 using Gator.

Row | Kd [nM] | koff [s⁻¹] | kon [M⁻¹ s⁻¹] | Binder
34 | 0.361 | 0.00027 | 688000 | B3
35 | 0.526 | 0.00047 | 898000 | B4
36 | 0.264 | 0.00017 | 758000 | B5
37 | 0.145 | ~0.000112 | 774000 | B6
38 | 0.685 | 0.00045 | 651000 | B7
39 | 0.117 | 3.9e-05 | 528000 | B8
40 | 0.108 | 5.3e-05 | 569000 | B11

Biological target: T5, human Trop-2-His protein
Assay: BLI (Gator Prime), LEM supernatant Ab on HFC probe
Protocol: as §3, §4

Row | Kd [nM] | koff [s⁻¹] | kon [M⁻¹ s⁻¹] | Binder
41 | 0.53 | 0.00027 | 518000 | B3
42 | 0.574 | 0.00038 | 666000 | B4
43 | 0.323 | 0.00017 | 526000 | B5
44 | 0.11 | 5.8e-05 | 530000 | B6
45 | 0.623 | 0.00038 | 607000 | B7
46 | 0.113 | 3.9e-05 | 342000 | B8
47 | 0.142 | 5.3e-05 | 372000 | B11
